Experiments:
[1] = target: T1, Human c-Met-His (SinoBiological, Cat. No. 10692-H08H) (human, UniProt P08581 25-932); experiment: SPR (Biacore), antibody captured on anti-hIgG Fc chip, human c-Met-His as analyte
T1 construct: Bought protein; also called c-Met-His protein; human c-Met protein; not shown: His tag

[2] = target: T2, EGFR and c-Met on the surface of tumor cells (human, UniProt P00533 25-1210; P08581 25-1390); experiment: flow cytometry, A431 cells (high EGFR, low c-Met)
T2 construct: whole, on cells; Not a complex: two separate receptors on the same cells, both targets of the multispecific antibodies; the read-outs cannot be split between them; also called cells expressing EGFR and c-Met (A431, NCI-H1975, NCI-H1993, NCI-H292, KP4, NCI-H441)

[3] = target: T2, EGFR and c-Met on the surface of tumor …; experiment: cell-based or functional assay
[4] = target: T2, EGFR and c-Met on the surface of tumor …; experiment: flow cytometry, NCI-H1993 cells (medium EGFR, high c-Met)
[5] = target: T2, EGFR and c-Met on the surface of tumor …; experiment: flow cytometry, NCI-H1975 cells (medium EGFR, low to medium c-Met)
[6] = target: T2, EGFR and c-Met on the surface of tumor …; experiment: cell-based or functional assay; remark: listed apart in the source
[7] = target: T2, EGFR and c-Met on the surface of tumor …; experiment: cell-based or functional assay; remark: listed apart in the source

T1 sequence (P08581 25-932 limits assumed): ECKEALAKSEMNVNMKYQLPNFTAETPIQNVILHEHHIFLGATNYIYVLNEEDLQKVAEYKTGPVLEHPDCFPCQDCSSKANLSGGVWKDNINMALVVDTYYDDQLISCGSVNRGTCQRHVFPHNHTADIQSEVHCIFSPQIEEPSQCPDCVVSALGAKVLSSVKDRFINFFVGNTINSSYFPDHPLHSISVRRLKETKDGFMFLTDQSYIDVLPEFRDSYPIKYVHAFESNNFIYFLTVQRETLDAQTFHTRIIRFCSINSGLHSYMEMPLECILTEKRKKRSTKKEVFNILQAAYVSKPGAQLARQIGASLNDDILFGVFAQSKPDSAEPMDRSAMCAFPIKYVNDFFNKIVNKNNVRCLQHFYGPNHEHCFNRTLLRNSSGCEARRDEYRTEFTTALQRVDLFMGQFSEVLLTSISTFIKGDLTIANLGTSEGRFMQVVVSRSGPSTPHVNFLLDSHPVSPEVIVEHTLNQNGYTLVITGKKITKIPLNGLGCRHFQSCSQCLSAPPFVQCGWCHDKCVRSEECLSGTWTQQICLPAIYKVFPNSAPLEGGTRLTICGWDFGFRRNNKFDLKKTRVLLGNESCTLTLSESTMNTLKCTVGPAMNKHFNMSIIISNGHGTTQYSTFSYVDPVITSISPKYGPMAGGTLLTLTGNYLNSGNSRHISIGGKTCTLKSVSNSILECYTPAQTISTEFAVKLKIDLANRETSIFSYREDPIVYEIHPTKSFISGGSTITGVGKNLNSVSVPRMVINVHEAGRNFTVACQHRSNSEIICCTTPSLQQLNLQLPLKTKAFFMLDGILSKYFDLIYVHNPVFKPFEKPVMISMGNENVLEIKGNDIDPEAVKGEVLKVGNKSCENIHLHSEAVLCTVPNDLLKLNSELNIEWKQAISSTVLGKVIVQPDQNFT

Row | Binder | Kd [1] | koff [1] | kon [1] | EC50 [2] | IC50 for inhibiting proliferation of KP4 cells (CCK8) [3] | IC50 for inhibiting proliferation of NCI-H292 cells (CCK8, with 1 ng/mL HGF) [3] | EC50 [4] | EC50 [5] | ADCC lysis EC50, KP4 cells, human PBMC effectors [6] | ADCC lysis EC50, NCI-H292 cells, human PBMC effectors [6] | endocytic activity EC50, A431 cells (flow cytometry, internalization reagent) [7] | endocytic activity EC50, NCI-H441 cells (flow cytometry, internalization reagent) [7] | endocytic activity EC50, NCI-H1975 cells (flow cytometry, internalization reagent) [7]
1 | anti-EGFR/anti-c-Met multispecific antibody V12 (bispecific antibody, human IgG1, kappa, Three chains, trivalent: 1B-1B6 VHH - 1B-1C7 VHH - Fc plus anti-EGFR Fab arm; knob-into-hole Fc; expressed in FUT8-/- CHO-S cells) QVQLVESGGDSVQAGGSLRLSCAASAHAYSSGCMGWFRQAPGKGREGVATIYTRNDFTYYSDSVKGRFTISRDDAKNTVYLQVNSLKAEDTAMYYCAAGSPFRYAGAWNVCGLKEEDYNYWGQGTLVTVSSGGGGSGGGGSQVQLVESGGGLVQPGGSLRLSCAASGYSYSANCVGWFYQAPGKEREGVAAINTGGETATYADFVKGRFTISQDYAKNTVYLQMNSLKSEDTGMYYCAAVGTRKYWDECSLSQHAYKNWGQGTLVTVSSGEPKSSDKTHTCPPCPAPELLGGPSVFLFPPKPKDTLMISRTPEVTCVVVDVSHEDPEVKFNWYVDGVEVHNAKTKPREEQYNSTYRVVSVLTVLHQDWLNGKEYKCKVSNKALPAPIEKTISKAKGQPREPQVCTLPPSREEMTKNQVSLSCAVKGFYPSDIAVEWESNGQPENNYKTTPPVLDSDGSFFLVSKLTVDKSRWQQGNVFSCSVMHEALHNRFTQKSLSLSPGK heavy: not shown light: not shown | 0.325 nM | 4.62e-05 s⁻¹ | 142000 M⁻¹ s⁻¹ |  |  |  |  |  |  |  |  |  | 
2 | anti-EGFR/anti-c-Met multispecific antibody V74 (bispecific antibody, human IgG1, kappa, knob-into-hole Fc; expressed in FUT8-/- CHO-S cells) EVQLVESGGGSVQAGGSLRLSCAVSGFTVSSNFMAWFRQAPGKGREWVSTITTGAGNTAYADSVKGRFTISEDNSKNTAYLQMNSLRAEDTAVYYCAAGRGGFWRPAEYDFWGQGTTVTVSSGGGGSQVQLVESGGGSVQPGGSLRLSCAASGYSYSANCVGWFRQAPGKGREGVSAINTGGETATYADFVKGRFTISRDNAKNTVYLQMNSLRAEDTAVYYCAAVGTRKYWDECSLSQHAYKNWGQGTLVTVSSGEPKSSDKTHTCPPCPAPELLGGPSVFLFPPKPKDTLMISRTPEVTCVVVDVSHEDPEVKFNWYVDGVEVHNAKTKPREEQYNSTYRVVSVLTVLHQDWLNGKEYKCKVSNKALPAPIEKTISKAKGQPREPQVCTLPPSREEMTKNQVSLSCAVKGFYPSDIAVEWESNGQPENNYKTTPPVLDSDGSFFLVSKLTVDKSRWQQGNVFSCSVMHEALHNRYTQKSLSLSPGK heavy: not shown light: not shown | 0.548 nM | 0.000128 s⁻¹ | 234000 M⁻¹ s⁻¹ |  |  |  |  |  |  |  |  |  | 
3 | anti-EGFR/anti-c-Met multispecific antibody V67 (bispecific antibody, human IgG1, kappa, knob-into-hole Fc; expressed in FUT8-/- CHO-S cells) EVQLVESGGGSVQAQGSLRLSCTVSGSTYSSNFMAWFRQAPGKEREWVATITTGAGNTAYADSVKGRFTISEDNAKRTAYLQMNSLKPEDTAVYYCAAGRGGFWRPAEYDFWGQGTQVTVSSGGGGSQVQLVESGGGSVQPGGSLRLSCAASGYSYSANCVGWFRQAPGKGREGVSAINTGGETATYADFVKGRFTISRDNAKNTVYLQMNSLRAEDTAVYYCAAVGTRKYWDECSLSQHAYKNWGQGTLVTVSSGEPKSSDKTHTCPPCPAPELLGGPSVFLFPPKPKDTLMISRTPEVTCVVVDVSHEDPEVKFNWYVDGVEVHNAKTKPREEQYNSTYRVVSVLTVLHQDWLNGKEYKCKVSNKALPAPIEKTISKAKGQPREPQVCTLPPSREEMTKNQVSLSCAVKGFYPSDIAVEWESNGQPENNYKTTPPVLDSDGSFFLVSKLTVDKSRWQQGNVFSCSVMHEALHNRYTQKSLSLSPGK heavy: not shown light: not shown | 0.276 nM | 7.01e-05 s⁻¹ | 254000 M⁻¹ s⁻¹ |  |  |  |  |  |  |  |  |  | 
4 | anti-EGFR/anti-c-Met multispecific antibody V73 (bispecific antibody, human IgG1, kappa, knob-into-hole Fc; expressed in FUT8-/- CHO-S cells) EVQLVESGGGSVQAGGSLRLSCAVSGFTVSSNFMAWFRQAPGKGREWVSTITTGAGNTAYADSVKGRFTISEDNSKNTLYLQMNSLRAEDTAVYYCAAGRGGFWRPAEYDFWGQGTTVTVSSGGGGSQVQLVESGGGSVQPGGSLRLSCAASGYSYSANCVGWFRQAPGKGREGVSAINTGGETATYADFVKGRFTISRDNAKNTVYLQMNSLRAEDTAVYYCAAVGTRKYWDECSLSQHAYKNWGQGTLVTVSSGEPKSSDKTHTCPPCPAPELLGGPSVFLFPPKPKDTLMISRTPEVTCVVVDVSHEDPEVKFNWYVDGVEVHNAKTKPREEQYNSTYRVVSVLTVLHQDWLNGKEYKCKVSNKALPAPIEKTISKAKGQPREPQVCTLPPSREEMTKNQVSLSCAVKGFYPSDIAVEWESNGQPENNYKTTPPVLDSDGSFFLVSKLTVDKSRWQQGNVFSCSVMHEALHNRYTQKSLSLSPGK heavy: not shown light: not shown | 0.458 nM | 9.03e-05 s⁻¹ | 197000 M⁻¹ s⁻¹ | 1.91 nM | 7.99 nM | 5.36 nM | 1.02 nM | 0.794 nM | 0.027 nM | 0.0181 nM | 8.33 nM | 16.7 nM | 12.4 nM
5 | amivantamab (bispecific antibody) chain 1: not shown chain 2: not shown chain 3: not shown chain 4: DIQMTQSPSSVSASVGDRVTITCRASQGISNWLAWFQHKPGKAPKLLIYAASSLLSGVPSRFSGSGSGTDFTLTISSLQPEDFATYYCQQANSFPITFGQGTRLEIKRTVAAPSVFIFPPSDEQLKSGTASVVCLLNNFYPREAKVQWKVDNALQSGNSQESVTEQDSKDSTYSLSSTLTLSKADYEKHKVYACEVTHQGLSSPVTKSFNRGEC |  |  |  | 1.62 nM | 29 nM | 45.8 nM | 0.596 nM | 0.378 nM | 0.0171 nM | 0.021 nM | 15.1 nM | 35.6 nM | 15.2 nM
6 | anti-EGFR/anti-c-Met multispecific antibody V35 (bispecific antibody, human IgG1, kappa, Three chains, trivalent: 1B-1B6-V2 VHH - 1B-1C7-V1 VHH - Fc plus anti-EGFR Fab arm; knob-into-hole Fc; expressed in FUT8-/- CHO-S cells) QVQLLESGGGSVQAGGSLRLSCAASGHTYSSGCMGWFRQAPGKGREGVATIYTRNDFTYYSDSVKGRFTISRDNSKNTVYLQMNSLRAEDTAVYYCAAGSPFRYAGAWNVCGLKEEDYNYWGQGTLVTVSSGGGGSGGGGSQVQLVESGGGSVQPGGSLRLSCAASGYSYSANCVGWFRQAPGKGREGVSAINTGGETATYADFVKGRFTISRDNAKNTVYLQMNSLRAEDTAVYYCAAVGTRKYWDECSLSQHAYKNWGQGTLVTVSSGEPKSSDKTHTCPPCPAPELLGGPSVFLFPPKPKDTLMISRTPEVTCVVVDVSHEDPEVKFNWYVDGVEVHNAKTKPREEQYNSTYRVVSVLTVLHQDWLNGKEYKCKVSNKALPAPIEKTISKAKGQPREPQVCTLPPSREEMTKNQVSLSCAVKGFYPSDIAVEWESNGQPENNYKTTPPVLDSDGSFFLVSKLTVDKSRWQQGNVFSCSVMHEALHNRFTQKSLSLSPGK heavy: not shown light: not shown | 0.318 nM | 3.34e-05 s⁻¹ | 105000 M⁻¹ s⁻¹ |  |  |  |  |  |  |  |  |  | 
7 | anti-EGFR/anti-c-Met multispecific antibody V41 (bispecific antibody, human IgG1, kappa, Three chains, trivalent: 1B-1B6-V1 VHH - 1B-1C7-V1 VHH - Fc plus anti-EGFR Fab arm; knob-into-hole Fc; expressed in FUT8-/- CHO-S cells) QVQLLESGGGSVQAGGSLRLSCAASGFTFSSGCMGWFRQAPGKGREGVATIYTRNDFTYYSDSVKGRFTISRDNSKNTVYLQMNSLRAEDTAVYYCAAGSPFRYAGAWNVCGLKEEDYNYWGQGTLVTVSSGGGGSGGGGSQVQLVESGGGSVQPGGSLRLSCAASGYSYSANCVGWFRQAPGKGREGVSAINTGGETATYADFVKGRFTISRDNAKNTVYLQMNSLRAEDTAVYYCAAVGTRKYWDECSLSQHAYKNWGQGTLVTVSSGEPKSSDKTHTCPPCPAPELLGGPSVFLFPPKPKDTLMISRTPEVTCVVVDVSHEDPEVKFNWYVDGVEVHNAKTKPREEQYNSTYRVVSVLTVLHQDWLNGKEYKCKVSNKALPAPIEKTISKAKGQPREPQVCTLPPSREEMTKNQVSLSCAVKGFYPSDIAVEWESNGQPENNYKTTPPVLDSDGSFFLVSKLTVDKSRWQQGNVFSCSVMHEALHNRFTQKSLSLSPGK heavy: not shown light: not shown | 0.368 nM | 3.57e-05 s⁻¹ | 97000 M⁻¹ s⁻¹ |  |  |  |  |  |  |  |  |  | 
8 | anti-EGFR/anti-c-Met multispecific antibody V42 (bispecific antibody, human IgG1, kappa, Three chains, trivalent: 1B-1B6-V3 VHH - 1B-1C7-V1 VHH - Fc plus anti-EGFR Fab arm; knob-into-hole Fc; expressed in FUT8-/- CHO-S cells) QVQLLESGGGSVQAGGSLRLSCAASGHTYSSGCMGWFRQAPGKGREGVATIYTRNDFTYYSDTVKGRFTISRDNSKNTVYLQMNSLRAEDTAVYYCAAGSPFRYAGAWNVCGLKEEDYNYWGQGTLVTVSSGGGGSGGGGSQVQLVESGGGSVQPGGSLRLSCAASGYSYSANCVGWFRQAPGKGREGVSAINTGGETATYADFVKGRFTISRDNAKNTVYLQMNSLRAEDTAVYYCAAVGTRKYWDECSLSQHAYKNWGQGTLVTVSSGEPKSSDKTHTCPPCPAPELLGGPSVFLFPPKPKDTLMISRTPEVTCVVVDVSHEDPEVKFNWYVDGVEVHNAKTKPREEQYNSTYRVVSVLTVLHQDWLNGKEYKCKVSNKALPAPIEKTISKAKGQPREPQVCTLPPSREEMTKNQVSLSCAVKGFYPSDIAVEWESNGQPENNYKTTPPVLDSDGSFFLVSKLTVDKSRWQQGNVFSCSVMHEALHNRFTQKSLSLSPGK heavy: not shown light: not shown | 0.438 nM | 4.39e-05 s⁻¹ | 100000 M⁻¹ s⁻¹ | 1.85 nM | 13.1 nM | 13.7 nM | 1.03 nM | 0.755 nM | 0.0117 nM | 0.0135 nM | 10.5 nM | 11.8 nM | 9.66 nM
